# Reference: article PMC12557367 (2025)
# Numbered stars: 1 amine (or outer) side, 2 acyl side, 3 side chain; on linkers, the order of the positions; unused ones are H or OH. Bridge positions count the residues as written; N and C are the ends. Square brackets hold non-standard residues; d marks the D form. * marks the point of attachment. (R)‑NODAGA = O=C(O)CN1CCN(CC(=O)O)CCN([C@H](CCC(=O)*)C(=O)O)CC1; DOTA = O=C(O)CN1CCN(CC(=O)O)CCN(CC(=O)*)CCN(CC(=O)O)CC1; TATA = O=C(CC[*:1])N1CN(C(=O)CC[*:2])CN(C(=O)CC[*:3])C1; Cys(et) = S-ethylcysteine, CCSC[C@H](N[*:1])C(=O)[*:2]; Ser(et) = O-ethylserine, CCOC[C@H](N[*:1])C(=O)[*:2]; 1Nal = N[C@@H](Cc1cccc2ccccc12)C(=O)O; 2Nal = N[C@@H](Cc1ccc2ccccc2c1)C(=O)O; Hyp = O=C(O)[C@@H]1C[C@@H](O)CN1; hArg = N=C(N)NCCCC[C@H](N)C(=O)O; Met(O) = CS(=O)CC[C@H](N)C(=O)O; SeMet = C[Se]CC[C@H](N)C(=O)O; Nle = CCCC[C@H](N)C(=O)O
# T1: recombinant human nectin-4 (human, UniProt Q96NY8 32-349)
# T1 chain: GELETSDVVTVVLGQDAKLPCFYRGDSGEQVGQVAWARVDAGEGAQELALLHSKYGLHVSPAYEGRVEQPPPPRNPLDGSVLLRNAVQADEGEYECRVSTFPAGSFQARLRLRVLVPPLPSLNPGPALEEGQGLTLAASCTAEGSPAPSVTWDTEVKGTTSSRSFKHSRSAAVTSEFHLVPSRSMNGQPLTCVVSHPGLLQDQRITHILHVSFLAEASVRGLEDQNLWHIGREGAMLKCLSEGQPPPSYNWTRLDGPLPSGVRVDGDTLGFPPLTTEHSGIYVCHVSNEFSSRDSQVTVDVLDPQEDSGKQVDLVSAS
# B1: 6 (peptide)
# chain: {(R)‑NODAGA}-CP[1Nal][dD]C[Ser(et)][hArg]DWSTP[Hyp]WC-NH2
# modifications: linker 1-5-15 via TATA
# SMILES: CCOC[C@@H]1NC(=O)[C@@H]2CSCCC(=O)N3CN(CN(C3)C(=O)CCSC[C@H](NC(=O)CC[C@H](C(=O)O)N3CCN(CC(=O)O)CCN(CC(=O)O)CC3)C(=O)N3CCC[C@H]3C(=O)N[C@@H](Cc3cccc4ccccc34)C(=O)N[C@H](CC(=O)O)C(=O)N2)C(=O)CCSC[C@@H](C(N)=O)NC(=O)[C@H](Cc2c[nH]c3ccccc23)NC(=O)[C@@H]2C[C@@H](O)CN2C(=O)[C@@H]2CCCN2C(=O)[C@H]([C@@H](C)O)NC(=O)[C@H](CO)NC(=O)[C@H](Cc2c[nH]c3ccccc23)NC(=O)[C@H](CC(=O)O)NC(=O)[C@H](CCCCNC(=N)N)NC1=O
# B2: 7 (peptide)
# chain: {(R)‑NODAGA}-CP[1Nal][dD]C[Cys(et)][hArg]DWSTP[Hyp]WC-NH2
# modifications: linker 1-5-15 via TATA
# SMILES: CCSC[C@@H]1NC(=O)[C@@H]2CSCCC(=O)N3CN(CN(C3)C(=O)CCSC[C@H](NC(=O)CC[C@H](C(=O)O)N3CCN(CC(=O)O)CCN(CC(=O)O)CC3)C(=O)N3CCC[C@H]3C(=O)N[C@@H](Cc3cccc4ccccc34)C(=O)N[C@H](CC(=O)O)C(=O)N2)C(=O)CCSC[C@@H](C(N)=O)NC(=O)[C@H](Cc2c[nH]c3ccccc23)NC(=O)[C@@H]2C[C@@H](O)CN2C(=O)[C@@H]2CCCN2C(=O)[C@H]([C@@H](C)O)NC(=O)[C@H](CO)NC(=O)[C@H](Cc2c[nH]c3ccccc23)NC(=O)[C@H](CC(=O)O)NC(=O)[C@H](CCCCNC(=N)N)NC1=O
# Target: T1, recombinant human nectin-4
# Test: FP
row,Binder,IC50 [µM]
1,Ac-CP[1Nal][dD]CM[hArg]DWSTP[Hyp]WC-NH2 (linker 1-5-15 via TATA) [1d (BCY8126)],0.0347
2,{DOTA}-CP[2Nal][dD]CMRDWSTP[Hyp]WC-NH2 (linker 1-5-15 via TATA) [8c],3.29
3,{(R)‑NODAGA}-CP[1Nal][dD]CM[hArg]DWSTP[Hyp]WC-NH2 (linker 1-5-15 via TATA; also: NODAGA complexed with natGa) [natGa-1e],0.203
4,{(R)‑NODAGA}-CP[1Nal][dD]C[Nle][hArg]DWSTP[Hyp]WC-NH2 (linker 1-5-15 via TATA; also: NODAGA complexed with natCu) [natCu-3a],0.0454
5,{(R)‑NODAGA}-CP[2Nal][dD]CM[hArg]DWSTP[Hyp]WC-NH2 (linker 1-5-15 via TATA) [9],0.27
6,{(R)‑NODAGA}-CP[2Nal][dD]CMRDWSTP[Hyp]WC-NH2 (linker 1-5-15 via TATA) [8a],0.479
7,{(R)‑NODAGA}-CP[1Nal][dD]C[SeMet][hArg]DWSTP[Hyp]WC-NH2 (linker 1-5-15 via TATA) [5],0.0487
8,{(R)‑NODAGA}-CP[1Nal][dD]C[Met(O)][hArg]DWSTP[Hyp]WC-NH2 (linker 1-5-15 via TATA) [2],0.568
9,B1,0.379
10,H-CP[1Nal][dD]CM[hArg]DWSTP[Hyp]WC-NH2 (linker 1-5-15 via TATA) [1c],0.0518
11,{DOTA}-CP[1Nal][dD]CM[hArg]DWSTP[Hyp]WC-NH2 (linker 1-5-15 via TATA) [1f],0.177
12,B2,0.151
13,{(R)‑NODAGA}-CP[1Nal][dD]CMRDWSTP[Hyp]WC-NH2 (linker 1-5-15 via TATA) [10],0.0321
14,Ac-CP[1Nal][dD]C[Nle][hArg]DWSTP[Hyp]WC-NH2 (linker 1-5-15 via TATA) [3b],0.0315
15,{(R)‑NODAGA}-CP[1Nal][dD]CM[hArg]DWSTP[Hyp]WC-NH2 (linker 1-5-15 via TATA) [1e],0.0356
16,{DOTA}-CP[2Nal][dD]CMRDWSTP[Hyp]WC-OH (linker 1-5-15 via TATA) [8d (N188)],4.22
17,{(R)‑NODAGA}-CP[1Nal][dD]CM[hArg]DWSTP[Hyp]WC-NH2 (linker 1-5-15 via TATA; also: NODAGA complexed with natCu) [natCu-1e],0.0237
18,{(R)‑NODAGA}-CP[1Nal][dD]C[Nle][hArg]DWSTP[Hyp]WC-NH2 (linker 1-5-15 via TATA) [3a],0.0416

# Target: T1, recombinant human nectin-4
# Test: SPR
row,Binder,Kd [µM]
1,{(R)‑NODAGA}-CP[2Nal][dD]CM[hArg]DWSTP[Hyp]WC-NH2 (linker 1-5-15 via TATA) [9],0.00285

# Target: T1, recombinant human nectin-4
# Test: SPR
# Remark: another data set of the same source
row,Binder,koff [s⁻¹]
1,{(R)‑NODAGA}-CP[2Nal][dD]CM[hArg]DWSTP[Hyp]WC-NH2 (linker 1-5-15 via TATA) [9],0.0361
2,{(R)‑NODAGA}-CP[1Nal][dD]CMRDWSTP[Hyp]WC-NH2 (linker 1-5-15 via TATA) [10],0.00308
